This note sets out measurements from publication PMC8059062 (The Journal of Biological Chemistry, 2021).

Ends that are not written are not given here.

Assay [1] concerns the target T1, calmodulin, wild type, full-length (aa 1-148) (human, UniProt P0DP23 1-149).
T1 construct: human calmodulin, full-length, aa 1-148; numbers count on: the protein without the initial Met (UniProt numbers are one higher); Ca2+-saturated ((Ca2+)4-CaM) and Ca2+-depleted (apo) states are the same molecule; the state is told by the assay; 15N-labelled in some NMR samples; also called CaM; WT CaM; source: bacterially overexpressed (pT7-7 vector) and purified; also bacterially coexpressed with …
Kind of assay: other fluorescence titration; YFP-CFP FRET biosensor (>=1 nM) with Ca2+-saturated WT or mutant CaM, emission spectra and equilibrium titrations; 50 mM HEPES, 100 mM KCl, 1 mM MgCl2, 50 uM EGTA, 5 mM NTA, 1.5 uM BSA, 500 uM DTT, 1 mM CaCl2, pH 7.4, 22 C.

For assay [2], the target named is T1, calmodulin, wild type, full-length (aa …). Kind of assay: not stated; (Ca2+)4-CaM binding to NaV IQ motifs; data not shown.
Assay [3] shares this target. Kind of assay: NMR 15N-HSQC chemical shift comparison; copurified 1:1 complexes, one partner 15N-labelled (290-600 uM), compared with isolated (Ca2+)2-CaMN and (Ca2+)2-CaMC and with each other; 50 mM HEPES, 100 mM KCl, 1 mM MgCl2, 50 uM EGTA, 5 mM NTA, 10 mM CaCl2, pH 7.4, 25 C. The following applies: both partners purified.
Assay [4] deals with T2, full-length FGF12A (aa 1-243) (human, UniProt P61328-1 1-243).
T2 construct: four nonnative residues left at the N terminus after removal of the His-GST tag with 3C protease; human FGF12A (A-type splice variant of FGF12), full-length, aa 1-243; Obtained only as the FGF12A+NaV1.2CTD complex; not shown: His-GST, N-terminal, cleaved
T2 sequence: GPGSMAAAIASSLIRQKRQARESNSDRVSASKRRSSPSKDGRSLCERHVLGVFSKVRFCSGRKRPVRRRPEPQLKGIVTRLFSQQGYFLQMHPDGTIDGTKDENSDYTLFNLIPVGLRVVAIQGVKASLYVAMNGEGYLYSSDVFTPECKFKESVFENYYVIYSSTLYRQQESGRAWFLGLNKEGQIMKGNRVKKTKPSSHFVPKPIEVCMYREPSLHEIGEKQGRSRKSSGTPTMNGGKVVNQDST
The experiment in a line: co-purification after refolding; denatured His-GST-FGF12A refolded by rapid dilution at 4 C into buffer with CaM+NaV1.2CTD (0.2 uM); tag cleaved, nickel resin repass, anion exchange (pH 8.5-7.4, KCl 0-300 mM) removes CaM. Conditions: both partners purified.

As a reminder, the Kd is the equilibrium constant for the complex coming apart. Low values mean tighter binding, high ones weaker binding. Turning to KSLCQKQLLILLSKVRLCGGRPARPDR (domain or fragment, cysteine pairing not given here; also: fused between YFP and CFP, source: expressed from a pET21B vector) [FGF11A_(CaMBD) biosensor (FGF11A CaMBD, residues 36-62, between YFP and CFP)], the Kd in assay [1] worked out at 19 nM. On the same count and under the same terms, the figure for KTSCDKNKLNVFSRVKLFGSKKRRRR (domain or fragment, also: fused between YFP and CFP, source: expressed from a pET21B vector) [FGF13A_(CaMBD) biosensor (FGF13A CaMBD, residues 35-60, between YFP and CFP)] is 13 nM; for MAAAIASSLIRQKRQARESNSDR (domain or fragment, source: expressed from a pET21B vector) [FGF12ALTP biosensor (FGF12A LTP, residues 1-23, between YFP and CFP)] it is 576 nM.

B1: NaV1.2 IQ motif (domain or fragment)
chain: EEVSAIIIQRAYRRYLLKQKVKKVSSIYKK
notes: IQ motif of NaV1.2; also called IQ motif of NaV1.2
As for B1, in assay [2], binding was put at a Kd of 19.8 nM.

B2: FGF12ANTD (FGF12A N-terminal domain, aa 1-70) (domain or fragment)
chain: GPGSMAAAIASSLIRQKRQARESNSDRVSASKRRSSPSKDGRSLCERHVLGVFSKVRFCSGRKRPVRRRPEPQL
notes: four nonnative residues left at the N terminus after removal of the His-GST tag with 3C protease; human FGF12A N-terminal domain, aa 1-70, contains LTP and CaMBD; 15N-labelled in some NMR samples; source: bacterial coexpression with CaM, copurified; not shown: His-GST, N-terminal, cleaved
B2: in assay [3], the binding result was “binds”.

For RSLCERHVLGVFSKVRFCSGRKRPVRR (domain or fragment, cysteine pairing not given here; also: fused between YFP and CFP, source: expressed from a pET21B vector) [FGF12A_(CaMBD) biosensor (FGF12A CaMBD, residues 38-64, between YFP and CFP)], the dissociation constant (Kd) in assay [1] was determined as 107 nM.

B3: NaV1.2CTD (fragment of the NaV1.2 C-terminal domain, residues 1777-1937, with EFL and IQ motif) (domain or fragment, human)
chain: GPGSENFSVATEESAEPLSEDDFEMFYEVWEKFDPDATQFIEFAKLSDFADALDPPLLIAKPNKVQLIAMDLPMVSGDRIHCLDILFAFTKRVLGESGEMDALRIQMEERFMASNPSKVSYEPITTTLKRKQEEVSAIIIQRAYRRYLLKQKVKKVSSIYKKDKG
notes: four nonnative residues left at the N terminus after removal of the His-GST tag with 3C protease; human NaV1.2 (SCN2A) C-terminal domain fragment, aa 1777-1937, contains the EF-hand like domain and the IQ motif; source: bacterial coexpression with CaM, copurified; not shown: His-GST, N-terminal, cleaved
For the molecule B3, the binding result in assay [4] is “binds”.
